B1: SEQ ID NO: 214: Mycobacterium lepromatosis carboxylate reductase (protein, listed as Mycobacterium lepromatosis)
chain: MSTTNTQEEQLARRVDYLTANDPQFAAAKPDPAVVAALAQPGLRLPQIIQTTLDGYAERPALGQRVVEFIKDPKTGRTSIELLPCFETITYRELSDRVGALARAWIHDLLHAGDRVCVLGFNSVDYAIIDMALGVISAVAVPLQTSAAITQLQPIVIETEPRVIAASVNQLPDTVELILSGPAPAKLVVFDYHPEADEQRDAVATARERLVDNNVVVESLIEVLDRGKTLPATPIPVADDSDDPLALLIYTSGSTGAPKGAMYPQSNVGKMWRRSDGNWFRSTAASITLNFMPMSHVMGHGILYGTLGNGGTAYFAARSDLSTLLEDLKLVRPTELNFVPRIWETLYDECQHAVDRRLTNSGSADRAAIEAEVMDEQRQSLLGGRYIAAMTGSAPTSPELKHGVESLLEMHLLEGYGSTEAGMVLFDGEVQRPPVIDYKLVDVPDLGYFSTDQPYPRGELLLKTQNMFPGYYKRPEVTATVFDGDGYYQTGDIVAEVGPARLVYVDRRNNVLKLAQGQFVTVAQLEAAFSNSPLVRQIYIYGNSAHPYLLAVVVPTEDALATNDIEALKPLIIDSLQEVAKEAELQSYEVPRDLIIETTPFSLENGLLTGIRKLAWPKLKQHYGARLEQLYADLAEGQTNALHALRQSGAEAPVLQTVSRAAGTILGAATTDLPSNAHFTDLGGDSLSALTFSNLLRELFNIDVPVGVIVSPVNDLAAIADYIESEQQGTKRPTFTAIHGRDAGEVHASDLTLDKFIDVSTLTAAPMLAQPDAEVRTVLLTGATGFLGRYLALKWLERMDLVDGKVIALVRAKSNEEARARLGKTFDSGDPKLLAHYQELAADHLEVIAGDKGEVELELDRQTWRRLADTVDLIVDPAALVNHVLPYSELFGPNALGTAELIRIALTSKQKPYIYVSTIGVGDQIEPAKFTEDSDIRVTSPTRKINDNYANGYGNSKWAGEVLLREAHELCGLPVAVFRCDMILADTSYAGQLNVPDMFTRMMLSLAATGIAPGSFYELDAESNRQRAHYDGLPVEFIAEAISTLGAQSLHGRDGFATYHVMNPHDDGIGMDEFVDWLIDAGCPIQRINDYDEWLRRFEISLRALPERQRHNSLLPLLHNYQKPEKPLNGSLAPTDRFRTAVQESKIVQDKDIPHISSAIIGKYVSDLQLLGLLRRQADRSPARVPS
B2: SEQ ID NO: 213: Helobdella robusta carboxylate reductase (protein, listed as Helobdella robusta)
chain: MRVSNNGPFLGHRCRFTKQYVWQTYEEIFELCQDFGSALIYKGLKPEDSTVIGIYSHNCVEWNITSETCSMFSMALVPLYDTLGPEACQYIINQTEMTTVVCEGWLKANLILNGLKQAESRTATPLKRLIIITNKDFHMSLKDSVRVSKHFSSSPDLANFADADSLSKNVLETAEKFGVEIPPTPSTINLISYTSGTTGDPKGVVLTHEAVICNISGLLAYDQHHKLFPKCGDFHLSYLPAAHGFERMNQIILMINGGQIGFSSGDILLLLDDIAALRPTIFMCVPRVLNRVYEKVMSNLENKPIKRWLFNFGMQRKLNLLKRGIITKNTIWDKLMFHKIQTLFGGRLEVCISGSAPLSDVVMDFCRGTFGCFVYEGYGQTELCAATMLTLPYEHDTVVVGPPLPNCHIKLIDIPDLDYKAINNMGEICIKSFCRMREYFKEPIKTRETLDEDSYIHTGDVGMWLPNGNLRIIDRRKHVFKLAQGEYVAPEKIENIYAMSPLICQVFVDGNSLQFCPLAVVVPDEDALKRLAERDSRTSKTICPIKICNMEQFCKNEEIRKMIHADMLQRGKKAGLKGFEQVKDIHLHPEKFSIENGLLTPTMKTKRPILRKKFQNIFVEMYEKLNRNVVSTNITTHPLQNL
B3: SEQ ID NO: 212: Anisakis simplex carboxylate reductase (protein)
chain: MYERLLHCIGYQVGLRFGFFGGDVNRLIDDIKELHPTVIPLVPRVLNRFHDTVMAKVNKSFLKRIIFNLALAFKYRELSRSIIRNDSLVDRYVFKRVREELGGRARFSMIGSAPVHGDILRFSRAVLGYVIVEGYGATECAAGTSAVIEADPITEHIGIPLACAAIKLVDVPELGYYAKDQAGEICYRGAHVFKGYFKNDEGTKEVLDADGWLHSGDIGRWTERGTLKIVDRKKHIFKLQQGEYIAPEKIEAVYDRSEYVVQSFVYGESLKTCLVAIIVPDQEIVLRDAKQKLDLAETDFAKLCRNDAVKKMILNDLTIVGRKAGLNSFEQVKDIYLSVERFTIANDLLTPTMKNKRPQIKSHFMKELNEMYSKLK
modifications: Anisakis simplex
notes: Anisakis simplex carboxylate reductase
B4: SEQ ID NO: 215: Schizopora paradoxa carboxylate reductase (protein, listed as Schizopora paradoxa)
chain: MASTLLQDVSPAPPLMISPLEIPLPEPVDFSKQAVEVPGTRRPGQTGHYQNAVWGFKAFPEEGPVYTLPDVFELGLSLEKNGQTSNKPFLGHRPVISAEPLKFASDYVWSTYAEADERRQNVGSALEKYFRDGTLGGGEYQTVGIWSQNRAEWQIVELACHAYGKVSVSLYDTLGKDSVEYIIEHAHLTVIFVTSQHIPLLLAMASKVPMLKLIVSVDELSSEAKRIMGIWSRTANVQVMELSELEQFGKANRLNMARPIGKSLATICYTSGTTSGPKGVLLTHSNLVSSVKSNLRASHFGEKGGIMMSYLPLAHIYERITELCTMALGGQIGFFTGDPLRLLEDASILKPNFFPSVPRVLNRVYQSAMLAGQTPGLKGYLFRTAMDAKLKKLHETGDNTHMLWDRLVFRKIQALLGGNVELVSCGSAPISVDVMDFLKIAFSCDVIEGYGMTENCGTCTRCWPNDPSSSGTVGAPQPCNEIKLVDVPSMNYTSNDKPNPRGEVCLRGNNCFSTYYKDEKNTRETVDEEGWLHTGDVGEIDSAGRLKIIDRIKNIMKLAQGEYVALEKIENVYGLHPLVAQLYVHGESLQDHLVGVIVPDPTQFAILCNSIRGTKIGANDSAELATAARDPAVAQAVLREITHEAKKAALKGFEMIKKIHLTTVPFSTENGLLTPTFKVRRKDCSIYFKEELAALYAQPTSMLK
B5: SEQ ID NO: 182: Firmicutes bacterium CAG:449 thioesterase (protein)
chain: MNYYQKELVLQEKDFINDELSPYSILNYFQDIAGIHADKIGLSHEELIKNDLVWVVLRNKYEIIKMPSINQKVILKTWPHQKGKIDFDREYAIYDENNNLLIKGLSKWILMNYKTRRISMFNNIKYSFECLEETNFENKFNKIEDFDINNFSFIETTTSENDLDINGHVNNASYARIVLNNIDFDITINHFEINYIKEIKANQKLKIYYLKKDNTYYIKAFNNEEVIFVLIVY
modifications: Firmicutes bacterium CAG:449
notes: Firmicutes bacterium CAG:449 thioesterase
B6: SEQ ID NO: 95: Aerococcus viridans ATCC 11563 thioesterase (protein)
chain: MINIRHYQGGKRMGLLYQESVKVRHYHCNALGEMTLPAILDIMLIASNNQEATIPEAKEGFRQEGWAWIITQNQIDINRLPRYDEDIIAETEATTYNKFFSKRHYALKTRDGLVLAQAETTFALIDLNQRSIVRIPEIVAEWYQVEKEERPSRRKRLNKEIAVESKLDRFEVKFLDIDLNNHVNNTIYLRWITNSLGMEWFEKYTPTSFTVAYEKEMYLHQEGAVHSDISTVSEDLKSGDTFNSQHVIDSEDKAHCLTEITWQVK
modifications: Aerococcus viridans ATCC 11563 = CCUG 4311
notes: Aerococcus viridans ATCC 11563 thioesterase

Tested on in the first assay: not listed separately
Nature of the assay: In vivo carboxylate reductase screening, substrate consumption by LC-MS, monomethyl heptanedioate. Type of assay: cell-based, Escherichia coli. The note with it: 541 enzymes screened in vivo. The protocol: To screen carboxylate reductases in vivo, […] T7- pUC expression vectors was co-transformed into T7 Express lysY/Iq with the phosphopantetheinyl transferase sfp from Bacillus subtilis on a T7-pCDF expression vector. Biological duplicates of the resulting strains were incubated in 0.5 mL of terrific broth containing either 1 g/L heptanedioate or 1 g/L monomethyl heptanedioate and supplemented with 0.4 mM IPTG in 96-well deep well plates. The plates were incubated for 30 h at 30° C. in a shaking incubator. The cells were then pelleted, and culture supernatants from the same strains in media containing either heptanedioate or monomethyl heptanedioate were combined. The combined supernatants were analyzed by LC-MS to determine the concentration of heptanedioate and monomethyl heptanedioate. Carboxylate reductase activity on heptanedioate or monomethyl heptanedioate was reflected by consumption of the respective substrate in the medium.
Take B1: the monomethyl heptanedioate activity result is listed as “most monomethyl heptanedioate activity”. B2: the monomethyl heptanedioate activity entry is “most monomethyl heptanedioate activity”. Take B3: the monomethyl heptanedioate activity result is reported as “most monomethyl heptanedioate activity”. Take B4: the monomethyl heptanedioate activity entry is reported as “most monomethyl heptanedioate activity”.

The test system of a further assay is heptanedioyl-ACP. Nature of the assay: Cell lysate in vitro thioesterase screen (DTNB, absorbance at 410 nm) on heptanedioyl-ACP. Type of assay: biochemical. The note with it: 0.33 mM acyl-ACP substrate, 30° C., 30 min.
Consider B5, for which the “activity toward heptanedioyl-ACP (hydrolysis)” value is given as “notable for their activity toward heptanedioyl-ACP”.

On to B6, for which the “activity toward heptanedioyl-ACP (hydrolysis)” value is listed as “notable for their activity toward heptanedioyl-ACP”.

The values above are taken from US10801046B2, “Methods and materials for biosynthesizing multifunctional, multivariate molecules via carbon chain modification” (INVISTA NORTH AMERICA S.A.R.L., priority 2016, dated 2020).
